From the supplement of paper PMC6757056
± gives the standard deviation of the averaged measurements.

B1: library; a variant is named by its letters at N, in order (parent)
chain: GCUGUCACCGGUGCUUGGUACGUUAUAUUCAGCCGGUCUGAUGAGUCUNNNNNNAGACGAAACAGC

What was measured:
(6R,S)-folinic acid [1] = variants of: B1; experiment: normalized RNA/DNA level without ligand (relative to sTRSVctl = 100) (log10 (% of sTRSVctl)); HEK293T overexpressing SLC46A1; higher = less ribozyme self-cleavage, higher mRNA level; details: without (6R,S)-folinic acid; ligand present: no
How it was run: (§1)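 Ribozyme switch library plasmids with mCherry reporters (eGFP in certain ligand experiments) went into HEK293T cells at 4 µg per 6-well well. Where ligand was used, it was applied 1 h before transfection, and total RNA was extracted with EDTA 72 h later for reverse transcription, amplification, barcoding and sequencing. RNA level is the RNA-to-DNA read ratio normalized to a spiked-in non-cleaving sequence or to the leading sequences, then scaled and log-transformed. Scaling was ×100 with log10, the leading set comprised 25 sequences, and the cutoff was ≥100 DNA reads.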

(6R,S)-folinic acid [2] = variants of: B1; experiment: normalized RNA/DNA level with ligand (relative to sTRSVctl = 100) (log10 (% of sTRSVctl)); HEK293T overexpressing SLC46A1; ligand concentration (+) RNA-Seq: 6 mM; higher = less ribozyme self-cleavage, higher mRNA level; details: with (6R,S)-folinic acid; ligand present: yes
How it was run: as §1

Variant | normalized RNA/DNA level without ligand (log10) ((6R,S)-folinic acid [1]) | normalized RNA/DNA level with ligand (log10) ((6R,S)-folinic acid [2])
UUCUCG | 1.944 ± 0.0051 | 2.02 ± 0.056
UUCUCA | 2.019 ± 0.003 | 2.04 ± 0.025
UUCUCU | 2.06 ± 0.032 | 2.05 ± 0.054
UUCUCC | 2.083 ± 0.014 | 2.02 ± 0.038
GUGCUC | 2.05 ± 0.032 | 2.01 ± 0.045
GUGCUA | 1.994 ± 0.0059 | 1.98 ± 0.04
GUGCUU | 2.037 ± 0.0067 | 2.039 ± 0.015
UUGAUC | 2.051 ± 0.0013 | 2.01 ± 0.022
UUGAUU | 2.017 ± 0.012 | 2.027 ± 0.013
UUGAUA | 1.978 ± 0.0072 | 2.03 ± 0.029
UUGGUU | 2.014 ± 0.0096 | 2.052 ± 0.019
UUGGUA | 1.92 ± 0.021 | 1.999 ± 0.014
UUGGUC | 2.047 ± 0.0021 | 2.041 ± 0.003
AUGCGC | 2.017 ± 0.0084 | 2.009 ± 0.018
GUGCCA | 2.057 ± 0.015 | 2.006 ± 0.0095
GUGCCU | 2.02 ± 0.024 | 1.98 ± 0.039
GUGCCC | 2.032 ± 0.012 | 2.02 ± 0.074
CUGGGC | 2.059 ± 0.0035 | 2.03 ± 0.03
CUGGGG | 1.871 ± 0.005 | 2.007 ± 0.0051
CUGGGU | 2.025 ± 0.02 | 2.032 ± 0.017
UUGAGU | 1.925 ± 0.015 | 1.96 ± 0.025
UUGAGC | 2.006 ± 0.005 | 2.05 ± 0.049
CUGGAG | 1.883 ± 0.01 | 1.99 ± 0.029
CUGGAC | 1.9905 ± 0.0006 | 2 ± 0.038
AUGUAC | 1.959 ± 0.01 | 1.98 ± 0.025
AUGUAU | 1.94 ± 0.025 | 2.03 ± 0.027
AUGUAA | 1.938 ± 0.011 | 2 ± 0.023
GUGUUU | 2.03 ± 0.027 | 2.05 ± 0.036
GUGUUG | 1.9429 ± 0.0015 | 2.014 ± 0.015
